Results as given in PMC8636641.

Tested on: dTao (Drosophila melanogaster)
Assay: fluorescence quenching (initial fluorescence, MST instrument)
Settings: inosine homopolymer strand; Pull-down: TAP buffer 50 mM Tris pH 7.5, 100 mM NaCl, 5% glycerol, 0.2% NP-40, 1.5 mM MgCl2, 60 min; quenching assay buffer not stated (dTao storage 20 mM Tris …)

FITC-poly(I:C)
Kd: 0.042 µM
